Publication PMC11804575

Target: heat shock protein 90 (HSP90) (UniProt P07900)
Assay: co-immunoprecipitation (anti-HA) with immunoblot quantification (ImageJ)
Conditions: HEK293T cells; endogenous HSP90; n = 3; parent: est. 1.0; read off a plot

BRAF^V600E (from UniProt P15056) R509H; 621APE-AAE
response (HSP90/HA-BRAF normalized to V600E): 12
